Measurements: PMC6598686 (Molecular cell, 2019)

Target: human linker histone H1.4 (human, UniProt P10412 1-219)
Assay: pull-down

Sequence of human linker histone H1.4 (P10412 whole entry): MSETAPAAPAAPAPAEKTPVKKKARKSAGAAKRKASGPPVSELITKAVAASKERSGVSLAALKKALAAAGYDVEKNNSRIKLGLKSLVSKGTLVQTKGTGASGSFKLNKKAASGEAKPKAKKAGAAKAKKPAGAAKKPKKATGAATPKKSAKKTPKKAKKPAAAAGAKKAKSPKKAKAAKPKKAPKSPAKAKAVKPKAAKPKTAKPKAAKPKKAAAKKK

binding result: binds
B1: His-tagged NAP1(160-312) (domain or fragment, human, UniProt P55209 160-312, looked up)
chain: EKEDPKGIPEFWLTVFKNVDLLSDMVQEHDEPILKHLKDIKVKFSDAGQPMSFVLEFHFEPNEYFTNEVLTKTYRMRSEPDDSDPFSFDGPEIMGCTGCQIDWKKGKNVTLKTIKKKQKHKGRGTVRTVTKTVSNDSFFNFFAPPEVPESGDL
